Test results reported in patent US20240293544A1 (KIROMIC BIOPHARMA, published 2024).

Key:
[1] = target: T1, Mesothelin Isoform 2 (IsoMSLN), antigen of the ELISA (human, UniProt Q13421 37-598); assay: ELISA
T1 construct: also called MSLN Isoform 2; mesothelin isoform-2 polypeptide

[2] = target: T2, Mesothelin (MSLN) Isoform 1, antigen of the ELISA (human, UniProt Q13421 296-598, limits assumed); assay: ELISA
T2 construct: also called Mesothelin canonical polypeptide
T2 sequence (Q13421 other isoform, or with tags, fused parts or gaps limits assumed): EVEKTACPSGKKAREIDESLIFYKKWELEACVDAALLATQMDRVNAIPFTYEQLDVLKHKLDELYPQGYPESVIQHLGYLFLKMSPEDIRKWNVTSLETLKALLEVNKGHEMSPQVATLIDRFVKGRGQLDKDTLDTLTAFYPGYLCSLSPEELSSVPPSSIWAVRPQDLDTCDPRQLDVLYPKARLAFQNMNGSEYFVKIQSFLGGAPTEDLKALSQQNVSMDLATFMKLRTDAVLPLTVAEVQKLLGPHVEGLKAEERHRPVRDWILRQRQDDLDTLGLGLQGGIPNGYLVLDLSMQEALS

T1 sequence (Q13421 37-606 limits assumed, form in doubt): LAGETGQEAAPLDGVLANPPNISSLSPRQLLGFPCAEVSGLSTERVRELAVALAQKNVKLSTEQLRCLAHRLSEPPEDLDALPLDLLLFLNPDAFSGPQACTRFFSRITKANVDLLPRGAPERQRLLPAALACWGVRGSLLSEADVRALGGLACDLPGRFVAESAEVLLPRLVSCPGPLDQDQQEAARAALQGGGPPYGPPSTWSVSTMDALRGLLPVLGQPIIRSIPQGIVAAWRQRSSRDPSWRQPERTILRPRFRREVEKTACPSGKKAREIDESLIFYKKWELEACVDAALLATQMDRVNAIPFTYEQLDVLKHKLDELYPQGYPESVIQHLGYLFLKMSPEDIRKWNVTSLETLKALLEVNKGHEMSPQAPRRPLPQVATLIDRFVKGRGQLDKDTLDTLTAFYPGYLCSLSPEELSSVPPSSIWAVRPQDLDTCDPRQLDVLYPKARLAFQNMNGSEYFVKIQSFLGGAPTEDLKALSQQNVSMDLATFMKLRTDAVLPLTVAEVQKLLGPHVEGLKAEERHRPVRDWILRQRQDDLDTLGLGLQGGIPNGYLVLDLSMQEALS

B1: 1B6 monoclonal antibody (Binding Molecule A) (antibody, V domains shown)
VH: EVKLVESGGGLVKPGGSLKLSCEASGFTFSRYAMSWVRHTPEKRLAWVASITFGGDPYYPDGLKGRFTISRDNTRNILYLQMNSLRSEDTAMYYCVRHESWFAYWGQGTLVTVSA
VL: DVLMTQTPLSLPVSLGEQVSISCRSSQTIVHTDGNIYLEWYLQNPGQSPRLLIYKISNRFSGVPDRFSGSGSGTDFTLKISRVEAEDLGIYYCFQASHVPYTFGGGTKLEIK
notes: also called 1B6 antibody; 1B6 mAb
For B1, the EC50 [1] was 0.073 mg/L and the binding result [2] was “no binding”.
